According to publication PMC10397247:

T1: 4H3462-bA
T1 chain: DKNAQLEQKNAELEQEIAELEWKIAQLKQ

T2: 4H3497-bA
T2 chain: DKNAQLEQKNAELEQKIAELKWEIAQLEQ

T3: 4H3613-bA
T3 chain: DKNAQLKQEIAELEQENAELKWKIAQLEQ

T4: 4H3628-bA
T4 chain: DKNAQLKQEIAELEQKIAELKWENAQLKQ

T5: 4H3638-bA
T5 chain: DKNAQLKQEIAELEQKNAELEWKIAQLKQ

T6: 4H3926-bA
T6 chain: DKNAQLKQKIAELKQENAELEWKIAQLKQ

T7: 4H591-bA
T7 chain: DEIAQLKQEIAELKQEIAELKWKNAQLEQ

T8: 4H626-bA
T8 chain: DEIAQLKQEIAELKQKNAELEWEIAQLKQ

T9: 4H906-bA
T9 chain: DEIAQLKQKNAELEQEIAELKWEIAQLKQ

T10: 4H3277-bA
T10 chain: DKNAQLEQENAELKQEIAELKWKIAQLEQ

T11: 4H3298-bA
T11 chain: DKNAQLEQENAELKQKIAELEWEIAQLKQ

T12: 4H348-bA
T12 chain: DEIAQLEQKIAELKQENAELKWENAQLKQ

T13: 4H40-bA
T13 chain: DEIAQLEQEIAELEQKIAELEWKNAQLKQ

T14: 4H477-bA
T14 chain: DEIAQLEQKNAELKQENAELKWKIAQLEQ

T15: 4H492-bA
T15 chain: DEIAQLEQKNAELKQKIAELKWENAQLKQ

T16: 4H741-bA
T16 chain: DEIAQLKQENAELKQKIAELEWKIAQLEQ


Legend:
Experiment in all cases: two-hybrid library CCNG1;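 also: natural log of median RNA to DNA barcode read ratio; higher means stronger binding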
4H3462-bA = target: T1, 4H3462-bA
4H3497-bA = target: T2, 4H3497-bA
4H3613-bA = target: T3, 4H3613-bA
4H3628-bA = target: T4, 4H3628-bA
4H3638-bA = target: T5, 4H3638-bA
4H3926-bA = target: T6, 4H3926-bA
4H591-bA = target: T7, 4H591-bA
4H626-bA = target: T8, 4H626-bA
4H906-bA = target: T9, 4H906-bA
4H3277-bA = target: T10, 4H3277-bA
4H3298-bA = target: T11, 4H3298-bA
4H348-bA = target: T12, 4H348-bA
4H40-bA = target: T13, 4H40-bA
4H477-bA = target: T14, 4H477-bA
4H492-bA = target: T15, 4H492-bA
4H741-bA = target: T16, 4H741-bA

Row | Binder | interaction score (4H3462-bA) | interaction score (4H3497-bA) | interaction score (4H3613-bA) | interaction score (4H3628-bA) | interaction score (4H3638-bA) | interaction score (4H3926-bA) | interaction score (4H591-bA) | interaction score (4H626-bA) | interaction score (4H906-bA) | interaction score (4H3277-bA) | interaction score (4H3298-bA) | interaction score (4H348-bA) | interaction score (4H40-bA) | interaction score (4H477-bA) | interaction score (4H492-bA) | interaction score (4H741-bA)
1 | DKNAQLEQKNAELEQEIAELEWKIAQLKQ [4H3462-bA] | 0.257 | 0.917 | -0.827 | -1.42 | -1.05 | 0.717 | 0.153 | -0.693 | -1.46 |  |  |  |  |  |  | 
2 | DKNAQLEQENAELKQEIAELKWKIAQLEQ [4H3277-bA] | -0.372 | -0.961 | -0.514 | -0.955 |  | -0.539 | -1.19 | -0.429 | -0.838 | 1.38 | -0.215 | -0.856 | -1.08 | -0.644 | -0.379 | -1.81
3 | DKNAQLEQENAELKQKIAELEWEIAQLKQ [4H3298-bA] | 0.667 | -0.263 | 0.681 | -0.0439 |  | -0.651 | -0.699 | -1.12 | -0.638 |  | 1.02 |  |  |  |  | 
